Consider 7 molecules from patent US5604203A, “Analogs of peptide YY and uses thereof” (University of Cincinnati, priority 1994, dated 1997).

The target of experiment [1] is PYY receptor of rat jejunal epithelial plasma membranes (rat). Briefly: competitive binding, done as described above (125I-PYY, rat jejunal membranes).
Experiment [2] shares this target. Put plainly: competition with 0.05 nM 125I-PYY on rat jejunal epithelial plasma membranes.
Experiment [3] has the same target. Put plainly: competition with 125I-PYY on rat jejunal membranes.
Experiment [4] shares this target.
Experiment [5] has the same target. This is another data set of the same source.
Experiment [6] has the same target. This is another data set of the same source.
Experiment [7] has as its system rat jejunal mucosa. Briefly: Short circuit current (SCC) in voltage clamped rat jejunal mucosa (antisecretory effect). The experiment is classed as cell-based. The conditions noted are these: Table 1; reduction of baseline SCC, rat jejunum; mean of three separate experiments. Here is the method: The antisecretory effects of the peptides were investigated by measuring the short-circuit current (SCC) in rat jejunal mucosa mounted in a Ussing chamber and automatically voltage clamped as described by Cox et al. (J. Physiol. supra). Briefly, strips of mucosa were placed between two halves of perspex Ussing chambers (window size, 0.6 cm^2) containing oxygenated (95% O2 /5% CO2) Krebs-Henseleit solution (NaCl, 117 mM, KCl 4.7 mM, CaCl2, 2.5 mM; MgSO4 1.2 mM, NaHCO3 24.8 mM and glucose 11.1 mM), pH 7.4, 37° C. […] Once a stable baseline SCC was reached, peptides were added to the basolateral reservoir only, and cumulative concentration-response profiles constructed.

In experiment [8] the target is T1, intestinal PYY-preferring receptors (Rattus norvegicus, UniProt Q9ERC0).
T1 sequence (Q9ERC0 1-381): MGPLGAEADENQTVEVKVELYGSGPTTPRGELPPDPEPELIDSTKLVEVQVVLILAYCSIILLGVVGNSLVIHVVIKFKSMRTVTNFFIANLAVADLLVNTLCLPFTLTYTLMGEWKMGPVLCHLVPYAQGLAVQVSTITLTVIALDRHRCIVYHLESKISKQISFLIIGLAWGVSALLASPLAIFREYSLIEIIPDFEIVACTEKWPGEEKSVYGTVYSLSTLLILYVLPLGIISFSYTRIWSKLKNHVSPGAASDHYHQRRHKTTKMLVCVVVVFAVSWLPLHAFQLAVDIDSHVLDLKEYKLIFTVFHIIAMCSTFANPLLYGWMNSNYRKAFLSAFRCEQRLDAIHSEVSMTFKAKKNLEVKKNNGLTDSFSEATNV
Particulars: BINDING IC50 (nM), Table 1; 125I-PYY, rat jejunal membranes; mean of three separate experiments.
Experimental: Bound and free peptides were separated by centrifugation at 20,000×g for 10 min.
All points in the binding experiments are the mean of at least three experiments performed in duplicate.

Experiment [9] concerns the target PYY receptor of rat jejunal epithelial plasma membranes (rat). Briefly: competition with 125I-PYY on rat jejunal epithelial plasma membranes.
For experiment [10], the system named is rat jejunal mucosa. Particulars: Cox et al. Peptides, supra; cited from earlier work.

Where two headings read alike, the source gives them in different places. Peptide text beside a SMILES is read from it.

Regarding PYY (peptide YY) (ligand), the IC50 is 0.1 nM in experiment [1], 0.2 nM in experiment [2] and 0.04 nM in experiment [3]. In [4], the maximal inhibitory response of SCC was -12.6 µA/0.6 cm^2. The same molecule had an SCC EC50 in [5] of 1.7 nM. In addition, the SCC EC50 of PYY after treatment of the tissue with the analog (1 µM) in experiment [6] is 4.4 nM. For the same molecule, the SCC EC50 of PYY, nontreated controls in experiment [6] stood at 2.6 nM.
For `CC(=O)N[C@@H](C)C(=O)N[C@@H](CO)C(=O)N[C@@H](CC(C)C)C(=O)N[C@@H](CCCNC(=N)N)C(=O)N[C@@H](Cc1ccc(Cl)cc1)C(=O)N[C@@H](Cc1ccc(O)cc1)C(=O)N[C@@H](CC(C)C)C(=O)N[C@@H](CC(N)=O)C(=O)N[C@@H](CC(C)C)C(=O)N[C@H](C(=O)N[C@H](C(=O)N[C@@H](CCCNC(=N)N)C(=O)N[C@@H](CCC(N)=O)C(=O)N[C@@H](CCCNC(=N)N)C(=O)N[C@@H](Cc1ccc(O)cc1)C(N)=O)[C@@H](C)O)C(C)C` [N-α-Ac-[p.ClPhe^26]PYY(22-36), N-α-Ac-A S L R [p.Cl.Phe^26] Y L N L V T R Q R] (HELM PEPTIDE1{[ac].A.S.L.R.[O=C([C@H](Cc1ccc(Cl)cc1)N[*:1])[*:2]].Y.L.N.L.V.T.R.Q.R.Y.[am]}$$$$V2.0), in the experiment with rat jejunal mucosa [7], the EC50 amounted to 124 nM. In experiment [8], the IC50 is 50 nM.
In [9], N-α-Ac-PYY(22-36) (peptide) yielded a fold increase of receptor affinity against PYY(22-36) of 4 times. Besides, the IC50 in experiment [2] was 1.12 nM; in experiment [3] it was 0.08 nM. In experiment [5], this molecule showed an SCC EC50 of 40 nM.
In the experiment with rat jejunal mucosa [7], “Ac-ASLRHYENLVTRQRY-NH2 [N-α-Ac-[Glu^28]PYY(22-36), N-α-Ac-A S L R H Y [Glu] N L V T R Q R Y--NH2]” yielded an EC50 of 3000 nM. The same molecule gave an IC50 in [8] of 44.7 nM.
Take “N-α-naphthaleneacetyl-PYY(22-36) (peptide)”: the figures for the SCC EC50 in experiment [5] and in [6] were 19500 nM and > 30000 nM, respectively.
Regarding [Pro^34 ]NPY: Y-1 selective agonist, in the experiment on rat jejunal mucosa [10], the “sensitivity of rat jejunal epithelial receptors to agonist” value was “completely insensitive”.
In [9], Ac-ASLRHFLNLVTRQRY-NH2 [N-α-Ac-[Phe^27 ]PYY(22-36)] came in with a percent increase of receptor affinity against N-α-Ac-PYY(22-36) of 28%. Further, the IC50 in [2] was found to be 0.8 nM. In experiment [4], the antisecretory potency against PYY (times less potent than PYY) came out at 9 and the maximal inhibitory response of SCC was -12 µA/0.6 cm^2. The same molecule came in with an SCC EC50 in [5] of 15.1 nM.
